Measured values published in patent US20230220042A1 (SHANGHAI JIAO TONG UNIVERSITY SCHOOL OF MEDICINE, published 2023).
Numbering of substitutions follows the chain as printed. Numbers in names are those of the source.

T1: Biotin-FcγRIIB (human, UniProt P31994 43-217, limits assumed, biotin-labelled)
T1 construct: Bought, biotin-labelled; used at 1 µg/ml for staining and sorting; also called human FcγRIIB; CD32b
T1 sequence (looked up): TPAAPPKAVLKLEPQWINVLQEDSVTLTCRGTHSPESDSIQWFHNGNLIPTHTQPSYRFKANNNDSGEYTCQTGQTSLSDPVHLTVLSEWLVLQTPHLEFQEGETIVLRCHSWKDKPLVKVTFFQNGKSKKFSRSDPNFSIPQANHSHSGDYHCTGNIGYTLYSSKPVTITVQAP

B1: human IgG2 anti-mouse CD40 surface displayed antibody, Fc mutant S267M/P271G (antibody, name in EU numbering)
light chain (with the P2A rest): DTVLTQSPALAVSPGERVTISCRASDSVSTLMHWYQQKPGQQPKLLIYLASHLESGVPARFSGSGSGTDFTLTIDPVEADDTATYYCQQSWNDPWTFGGGTKLELKRTVAAPSVFIFPPSDEQLKSGTASVVCLLNNFYPREAKVQWKVDNALQSGNSQESVTEQDSKDSTYSLSSTLTLSKADYEKHKVYACEVTHQGLSSPVTKSFNRGECGSGATNFSLLKQAGDVEENPG
heavy chain: EVQLVESDGGLVQPGRSLKLPCAASGFTFSDYYMAWVRQAPTKGLEWVASISYDGSSTYYRDSVKGRFTISRDNAKSTLYLQMDSLRSEDTATYYCGRHSSYFDYWGQGVMVTVSSASTKGPSVFPLAPCSRSTSESTAALGCLVKDYFPEPVTVSWNSGALTSGVHTFPAVLQSSGLYSLSSVVTVPSSNFGTQTYTCNVDHKPSNTKVDKTVERKCCVECPPCPAPPVAGPSVFLFPPKPKDTLMISRTPEVTCVVVDVMHEDGEVQFNWYVDGVEVHNAKTKPREEQFNSTFRVVSVLTVVHQDWLNGKEYKCKVSNKGLPAPIEKTISKTKGQPREPQVYTLPPSREEMTKNQVSLTCLVKGFYPSDIAVEWESNGQPENNYKTTPPMLDSDGSFFLYSKLTVDKSRWQQGNVFSCSVMHEALHNHYTQKSLSLSPGKLEPPPSTVSNMATVAVLVVLGAAIVTGAVVAFVMKMRRRNTGGKGGDYALAPGSQTSDLSLPDCKVMVHDPHSLA
notes: as m1; positions are Eu numbers; copies: 2 + 2
B2: human IgG2 anti-mouse CD40 surface displayed antibody, Fc mutant P271G/T299M (antibody, name in EU numbering)
light chain (with the P2A rest): B1 light chain (with the P2A rest)
heavy chain: B1 heavy chain with M262S, T294M
notes: as for B1
B3: human IgG2 anti-mouse CD40 surface displayed antibody, Fc mutant P271G/T299A (antibody, name in EU numbering)
light chain (with the P2A rest): B1 light chain (with the P2A rest)
heavy chain: B1 heavy chain with M262S, T294A
notes: as for B1
B4: human IgG2 anti-mouse CD40 surface displayed antibody, Fc mutant P271G/T299S (antibody, name in EU numbering)
light chain (with the P2A rest): B1 light chain (with the P2A rest)
heavy chain: B1 heavy chain with M262S, T294S
notes: as for B1
B5: human IgG2 anti-mouse CD40 surface displayed antibody, Fc mutant P271G/T299W (antibody, name in EU numbering)
light chain (with the P2A rest): B1 light chain (with the P2A rest)
heavy chain: B1 heavy chain with M262S, T294W
notes: as for B1
B6: human IgG2 anti-mouse CD40 surface displayed antibody, Fc mutant S267A/P271G (antibody, name in EU numbering)
light chain (with the P2A rest): B1 light chain (with the P2A rest)
heavy chain: B1 heavy chain with M262A
notes: as for B1
B7: human IgG2 anti-mouse CD40 surface displayed antibody, Fc mutant P271G/S298N (antibody, name in EU numbering)
light chain (with the P2A rest): B1 light chain (with the P2A rest)
heavy chain: B1 heavy chain with M262S, S293N
notes: as for B1
B8: human IgG2 anti-mouse CD40 surface displayed antibody, Fc mutant P271G/S298L (antibody, name in EU numbering)
light chain (with the P2A rest): B1 light chain (with the P2A rest)
heavy chain: B1 heavy chain with M262S, S293L
notes: as for B1
B9: human IgG2 anti-mouse CD40 surface displayed antibody, Fc mutant V266A/P271G (antibody, name in EU numbering)
light chain (with the P2A rest): B1 light chain (with the P2A rest)
heavy chain: B1 heavy chain with V261A, M262S
notes: as for B1
B10: human IgG2 anti-mouse CD40 surface displayed antibody, Fc mutant H268S (antibody, name in EU numbering)
light chain (with the P2A rest): B1 light chain (with the P2A rest)
heavy chain: B1 heavy chain with M262S, H263S, G266P
notes: as for B1
B11: human IgG2 anti-mouse CD40 surface displayed antibody, Fc mutant L328V (antibody, name in EU numbering)
light chain (with the P2A rest): B1 light chain (with the P2A rest)
heavy chain: B1 heavy chain with M262S, G266P, L323V
notes: as for B1
B12: human IgG2 anti-mouse CD40 surface displayed antibody, Fc mutant L328G (antibody, name in EU numbering)
light chain (with the P2A rest): B1 light chain (with the P2A rest)
heavy chain: B1 heavy chain with M262S, G266P, L323G
notes: as for B1
B13: human IgG2 anti-mouse CD40 surface displayed antibody, Fc mutant L328R (antibody, name in EU numbering)
light chain (with the P2A rest): B1 light chain (with the P2A rest)
heavy chain: B1 heavy chain with M262S, G266P, L323R
notes: as for B1

What follows are molecules tested against T1, Biotin-FcγRIIB (assay: FACS sorting of displayed Fc library on biotin-FcγRIIB, NGS).

Enrichment factor (after/before sorting) | Increased factor a (enrichment factor/wild-type enrichment factor) | Molecule
4.31 | 7.52 | B1
4.74 | 6.33 | B2
6.28 | 8.39 | B3
12 | 16 | B4
9.23 | 12.3 | B5
5.27 | 9.19 | B6
18 | 24 | B7
188 | 252 | B8
8.63 | 15 | B9

What follows are molecules tested against T1, Biotin-FcγRIIB (assay: magnetic sorting on biotin-FcγRIIB with unlabelled activating FcγRs, NGS; LibraryMix #3).
Procedure: 3T3 cells were collected by trypsin digestion, and a single cell suspension was prepared. […] The cells were incubated for 15 minutes on ice and then washed twice with MACS buffer and re-suspended in 100 μl MACS buffer. Twenty-five μl anti-Biotin magnetic beads were added, and the cells were incubated for 15 minutes on ice and then washed once with MACS buffer and re-suspended to 500 μl, and added to the LS column put in the magnetic field. The effluent was collected, washed with 3 mL of MACS buffer and collected; The LS column was then removed out of the magnetic field, and 5 mL of MACS buffer was used to rapidly elute the remaining cells from the sorting column to collect positive cells, which are the high I/A ratio cells.

Enrichment factor (percentage after sorting/percentage before sorting) | Increased factor (mutation enrichment factor/wild-type enrichment factor) | Percentage after sorting/unbinding percentage | Percentage before sorting/unbinding percentage | Molecule
7.85 | 6.95 | – | – | B10
2.31 | 2.04 | 25.4 | 11 | B11
3.01 | 2.67 | – | – | B12
5.3 | 4.69 | 30.8 | 5.82 | B13
2.31 | 2.04 | 11.9 | 5.17 | B7

What follows are molecules tested against Biotin-FcγRIIB (human) (UniProt P31994) (assay: FACS sorting of displayed Fc library on biotin-FcγRIIB, NGS).

Increased factor b Site 2 (point mutation/wild-type) | Molecule
0.8 | human IgG2 anti-mouse CD40 surface displayed antibody, Fc mutant S298R
1.3 | human IgG2 anti-mouse CD40 surface displayed antibody, Fc mutant D270H
1.2 | human IgG2 anti-mouse CD40 surface displayed antibody, Fc mutant S298G
1.6 | human IgG2 anti-mouse CD40 surface displayed antibody, Fc mutant S298D
1.6 | human IgG2 anti-mouse CD40 surface displayed antibody, Fc mutant I332T
0.4 | human IgG2 anti-mouse CD40 surface displayed antibody, Fc mutant P271W
0.5 | human IgG2 anti-mouse CD40 surface displayed antibody, Fc mutant T299W
1.1 | human IgG2 anti-mouse CD40 surface displayed antibody, Fc mutant I332E
1.2 | human IgG2 anti-mouse CD40 surface displayed antibody, Fc mutant P329S
0.5 | human IgG2 anti-mouse CD40 surface displayed antibody, Fc mutant G236V
0.6 | human IgG2 anti-mouse CD40 surface displayed antibody, Fc mutant T299S
0.4 | human IgG2 anti-mouse CD40 surface displayed antibody, Fc mutant T299A

Each molecule was assayed against T1, Biotin-FcγRIIB (assay: FACS sorting of displayed Fc library on biotin-FcγRIIB, NGS; reference P271G).

Increased factor 2 c Site 2 (combined/point mutation) | Increased factor 2 c Site 1 (combined/point mutation) | Molecule
1.6 | – | B1
– | 1.3 | B2
– | 1.8 | B3
– | 3.4 | B4
– | 2.6 | B5
1.9 | – | B6
– | 5.1 | B7
– | 53.2 | B8
3.2 | – | B9
